Measurements reported in patent publication US20250295809A1 (published 2025).

B1: HER-10 recombinant (naked) antibody (antibody, human IgG1, kappa, V domains shown)
VH: QVQLQQSGPELVKPGASLKLSCTASGFNIKDTYIHWVKQRPEQGLEWIGRIYPTNGYTRYDPKFQDKATITADTSSNTAYLQVSRLTSEDTAVYYCSRWGGDGFYAMDYWGQGASVTVSS
VL: DIVMTQSHKFMSTSVGDRVSITCKASQDVNTAVAWYQQKPGHSPKLLIYSASFRYTGVPDRFTGSRSGTDFTFTISSVQAEDLAVYYCQQHYTTPPTFGGGTKVEIKR
notes: also called Ab-HER-10
B2: HER-10 vectorized anti-HER2 antibody (antibody, human IgG1, kappa, V domains shown)
VH: B1 VH
VL: B1 VL
notes: also called Ab-HER-10
B3: HER-10 anti-HER2 antibody (Ab-HER-10) (antibody, human IgG1, kappa, V domains shown)
VH: B1 VH
VL: B1 VL
B4: Ab-HER-78 (bispecific antibody, human IgG1, kappa)
heavy: QVQLVQSGAEVKKPGASVKVSCKASGYSFTGYFINWVREAPGQGLEWMGHISSSYATSTYNQKFQGRVTFTVDTSSSTAYMELSSLRSEDTAVYYCVRSGNYEEYAMDYWGQGTLVTVSSASTKGPSVFPLAPSSKSTSGGTAALGCLVKDYFPEPVTVSWNSGALTSGVHTFPAVLQSSGLYSLSSVVTVPSSSLGTQTYICNVNHKPSNTKVDKRVEPKSCDKTHTCPPCPAPELVGGPSVFLLPPKPKDTLMISRTPEVTCVVVDVSHEDPEVKFNWYVDGVEVHNAKTKPPEEQYNSTLRVVSVLTVLHQDWLNGKEYKCKVSNKALPAPIEKTISKAKGQPREPQVYTLPPSRDELTKNQVSLTCLVKGFYPSDIAVEWESNGQPENNYKTTPLVLDSDGSFFLYSKLTVDKSRWQQGNVFSCSVMHEALHNHYTQKSLSLSPGK
light: not shown

Experiments:
HER2 ECD [1] = target: T1, HER2 ECD (human, UniProt P04626 23-652); assay: SPR (Biacore 8K); antibody captured on anti-human IgG Fc CM5 chip; HER2 ECD 0.625-80 nM as analyte; 1:1 global fit; 25 C
T1 construct: extracellular domain; also called ErbB2; HER2/neu

HER2 ECD [2] = target: T2, HER2 ECD (human, UniProt P04626 23-652); assay: SPR Biacore, binding to Her2 ECD, 1:1 binding model (global fit); HER-10 expressed from Expi293 cells
T2 construct: extracellular domain
Method: (§1) Antibody binding to HER2 was analyzed by Biacore 8K (GE Healthcare) surface plasmon resonance instrument (SPR). All reagents used were from GE Healthcare. HBS-EP+ was used as the sample and running buffer and the interaction was measured at 25° C. […] HER2 ECD (0.625-80 nM, 2-fold dilution) was passed over the captured anti-HER2 antibody at 30 μl/min flow rate, and association and dissociation phases were recorded for 300 and 600 sec, respectively. The sensor chip was regenerated by a 30 sec injection of 3M MgCl₂ at 30 μl/min at the end of each injection cycle. […] The conditioned media was diluted in HBS-EP+ to achieve a capture level that produced a final HER2 binding response of less than 200 RU.
(§2) SK-BR-3 cells were reverse transfected with plasmid DNA using Lipofectamine LTX and PLUS Reagent in fibronectin-coated flasks. The culture supernatant was replaced with serum-free medium (Opti-MEM) one day post-transfection. Three days post-transfection, the culture medium was concentrated using centrifugal concentrators (MilliporeSigma) and analyzed by Biacore SPR binding to Her2 ECD with data fitted to a 1:1 binding model (global fit).

HER2 ECD [3] = target: T2, HER2 ECD; assay: SPR Biacore, binding to Her2 ECD, 1:1 binding model (global fit); HER-10 from concentrated SK-BR-3 culture medium
Method: as §1, §2

HER2 on SK-BR-3 cells = HER2 on SK-BR-3 cells (human, UniProt P04626 23-1255); assay: cell-based or functional assay

Row | Binder | Kd (HER2 ECD [1]) [nM] | koff (HER2 ECD [1]) [s⁻¹] | kon (HER2 ECD [1]) [M⁻¹ s⁻¹] | Kd (HER2 ECD [2]) [nM] | Kd (HER2 ECD [3]) [nM] | Emax (SK-BR-3 cell proliferation, CellTiter-Glo 2.0, five days) (HER2 on SK-BR-3 cells) [%] | IC50 (SK-BR-3 cell proliferation, CellTiter-Glo 2.0, five days) (HER2 on SK-BR-3 cells) [µg/mL]
1 | B1 | 1.2 | 0.00021 | 190000 |  |  |  | 
2 | B2 | 1.5 | 0.00025 | 170000 |  |  |  | 
3 | B3 |  |  |  | 1.58 | 0.96 |  | 
4 | B4 |  |  |  |  |  | 56.5 | 0.08
